“Also recorded” adds a separate entry of the source.

Data set [1] addresses T1, HA-BFL-1ΔC C4S/C19S / tBID (Homo sapiens, UniProt Q16548, C19S/C4S).
T1 construct: Recombinant anti-apoptotic BFL-1ΔC (aa 1-151) and its cysteine to serine mutants were cloned into PET17b; expressed in transfected cells; host or cells: 293T (lysate)
T1 sequence (Q16548 1-151 C4S/C19S): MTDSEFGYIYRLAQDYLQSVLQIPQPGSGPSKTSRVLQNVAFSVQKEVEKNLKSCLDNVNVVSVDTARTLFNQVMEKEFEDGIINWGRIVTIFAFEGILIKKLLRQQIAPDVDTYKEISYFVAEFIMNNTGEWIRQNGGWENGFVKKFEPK
The data set can be described thus: BFL-1/BH3 complex disruption: competition with tBID in 293T lysates. The following applies: anti-HA immunoprecipitation. The data set is classed as binding. How it is done: To evaluate the capacity of biotinylated SAHBs to compete with tBID for interactions with BFL-1 and MCL-1, 293T cells were transfected with either HA-BFL-1ΔC C4S/C19S or FLAG-MCL-1 in the p3XFLAG-CMV-10 vector (Sigma) as above. After 24 hr, cells were trypsinized, washed with PBS, lysed in 1% CHAPS buffer, and the supernatant collected for protein concentration determination by BCA kit. Lysate samples (0.5 mg) were incubated with 0.25 μM recombinant tBID (R&D Systems) and 5 μM biotinylated NOXA SAHBs for 6 h at RT. The mixtures were then subjected to HA or FLAG immunoprecipitation, followed by western analysis using 1:1000 dilutions of HA (Sigma Aldrich, #12CA5), FLAG (Sigma-Aldrich, F7425), and BID (Santa Cruz sc-11423) antibodies.

The subject of a further data set is MV4;11 cells. The data set can be described thus: Cell viability (CellTiter-Glo) and CalcuSyn synergy, MV4;11. The following applies: MV4;11 cells (not dependent on BFL-1, dependent on MCL-1). How it is done:
(§1) Cell viability and caspase-3/7 activation was measured using CellTiter-Glo and Caspase-Glo 3/7 chemiluminescence reagents (Promega), respectively, and luminescence was detected by a Spectramax M5 microplate reader. Synergy of drug interactions was calculated using the CalcuSyn software (Biosoft).

The target of another data set is T2, full-length BFL-1 (Homo sapiens, UniProt Q16548).
T2 construct: Recombinant full-length BFL-1 (aa-175) containing an N-terminal hexahistidine tag; made in house
T2 sequence (Q16548 1-175): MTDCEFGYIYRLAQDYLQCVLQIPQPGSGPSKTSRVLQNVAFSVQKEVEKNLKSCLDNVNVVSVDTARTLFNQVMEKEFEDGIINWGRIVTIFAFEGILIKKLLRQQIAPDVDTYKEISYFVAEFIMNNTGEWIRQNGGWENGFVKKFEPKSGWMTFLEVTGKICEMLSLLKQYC
Kind of data set: Covalent crosslinking to full-length BFL-1, recombinant and HA-tagged expressed in 293T cells. The data set is classed as binding. The following applies: recombinant and expressed in 293T cells; somewhat reduced efficiency vs C-terminally truncated species. The source says:
We confirmed that both of our lead constructs could covalently crosslink to full-length BFL-1 protein, which bears a C-terminal helix that could potentially compete with D-NA-NOXA SAHBs for interaction at the canonical BH3-binding pocket in cancer cells. We generated recombinant full-length BFL-1 and expressed HA-tagged full-length BFL-1 in 293T cells, and then conducted crosslinking analyses in vitro and in treated cells, respectively.
Recombinant full-length BFL-1 (aa-175) containing an N-terminal hexahistidine tag was cloned into the PTYB1 vector (New England Biolabs) and purified as above except for the addition of a chitin affinity chromatography and DTT elution step. Protein purity and identity was confirmed by Coomassie staining and western blot analysis using a mouse monoclonal anti-His6 tag antibody (Abcam).
His-BFL-1ΔC C4S/C19S protein (5 μM) was pre-treated with 10 mM DTT in 50 mM Tris (pH 8.0) and 100 mM NaCl for 30 min at room temperature (final volume […]) and then combined with a 10:1 molar ratio of cysteine-reactive NOXA SAHB for an additional 1-hr incubation at room temperature. The samples were then boiled in 3× loading buffer with DTT and electrophoresed on 12% Bis-Tris gel, then subjected to Coomassie staining.

Another data set addresses T3, native BFL-1 (Homo sapiens, UniProt Q16548).
T3 construct: endogenous in cells; host or cells: A375P melanoma cells (A10); U937 AML cells (A12), lysates
T3 sequence (Q16548 1-175): T2 sequence (Q16548 1-175)
The data set can be described thus: BFL-1 targeting in A375P lysates (streptavidin pulldown, BFL-1 western). The data set is classed as binding. The following applies: biotinylated SAHB, compared to acetylated construct. How it is done:
Cultured A375P and U937 cells were trypsinized or harvested, respectively, washed with PBS, and lysed by incubating with 1% CHAPS lysis buffer (1% CHAPS, 150 mM NaCl, 50 mM Tris pH 7.4, 100 μM DTT). The protein concentrations of the soluble fraction were measured using a BCA kit according to the manufacturer's instructions (Thermo Scientific). Lysate samples (1 mg) were incubated with vehicle or C-terminally biotinylated NOXA SAHBs (30 μM) overnight in 1% CHAPS lysis buffer at 4° C. Biotin capture was accomplished by incubating the mixture with high-capacity SA agarose (Thermo Scientific) for 2 hours at 4° C., followed by centrifugation and washing the pelleted beads three times with lysis buffer (1 mL). Bead-bound proteins were eluted by boiling in 10% SDS containing 10 mg/mL biotin for 10 minutes and then subjected to electrophoresis and western blotting using BFL-1 (Abcam, #125259) and MCL-1 (Rockland #600-401-394S) antibodies.

Data set [2] relates to U937 cells. Kind of data set: LDH release assay, U937 cells. It counts as cell-based, human. The following applies: 30 min and 4 hr, listed as D-NA-NOXA SAHB-15 R31E. How it is done:
After overnight incubation for A375P cells, or immediately upon plating for U937 cells, the cells were treated with the indicated concentrations of D-NA-NOXA SAHBs in DMEM or RPMI supplemented with 5% FBS for the indicated time period (30 min, 4 h). After plate centrifugation at 1,500 rpm (Thermo Scientific Sorvall Four-Place Swinging Bucket Rotor [75006445]; 478×g) for 5 min at 4° C., LDH release was quantified by transferring 100 μL of cell-culture medium to a clear plate (Corning), incubating with 100 μL of LDH reagent (Roche) for 30 min while shaking, and then measuring absorbance at 490 nm on a microplate reader (Spectramax M5, Molecular Devices).
A general note: Release of lactate dehydrogenase indicates damage to the cell membrane.

In data set [3] the test system is U937 cells. The data set can be described thus: Cell viability (CellTiter-Glo) and CalcuSyn synergy, U937. The following applies: U937 cells (BFL-1-dependent). How it is done: as §1

As for JAT8LREFGDXLNFRQ [D-NA-NOXA-15 R31E], the “competition with tBID for HA-BFL-1ΔC C4S/C19S interaction” value in data set [1] is recorded as “effectively competes with tBID”. Moreover, the “cytotoxicity, single agent” value in the data set with MV4;11 cells is “essentially insensitive”; with U937 cells [3] (listed as D-NA-NOXA SAHB-15 R31E), “responsive”; in the data set with U937 cells [3] (listed as NOXA-15 R31E SAHB), “selective cytotoxicity”. The “covalent crosslinking to full-length BFL-1” value with full-length BFL-1 was “covalent crosslinking to recombinant and expressed full-length BFL-1”. In the data set with native BFL-1, the “targeting of native BFL-1” value is “enhanced targeting of native BFL-1”. The “LDH release (non-specific cell membrane-lytic activity)” value in the data set on U937 cells [2] was “no LDH release; also recorded: no non-specific cell membrane-lytic activity”.

Values taken from US12466853B2, “Selective targeting of apoptosis proteins by structurally-stabilized and/or cysteine-reactive NOXA peptides” (priority 2017, dated 2025).
